Results published in patent publication CN114904015A (JIANGSU MAIWEIKANG NEW DRUG RES AND DEVELOPMENT CO LTD, dated 2022).

What was measured:
[1] = target: T1, 人CLDN18.2 (human CLDN18.2), expressed on the cell surface (human, UniProt P56856-2 1-261); test: FACS (MFI) on CHO/CLDN18.2 cells, from 5 μg/mL in 3-fold dilutions
T1 construct: whole, on cells; also called CHOK1细胞表面稳定表达人CLDN18.2; CHO/CLDN18.2

[2] = target: T1, 人CLDN18.2 (human CLDN18.2), expressed …; test: cell-based or functional assay
[3] = target: T1, 人CLDN18.2 (human CLDN18.2), expressed …; test: cell-based or functional assay; remark: listed apart in the source

| Binder | binding result [1] | CDC EC50(nM), BxPC3 cells stably expressing human CLDN18.2 [2] [nM] | CDC EC50(nM), CHOK1 cells stably expressing human CLDN18.2 [2] [nM] | CDC EC50(nM), NCI-N87 cells stably expressing human CLDN18.2 [2] [nM] | ADCC reporter (Jurkat FcγRIIIa-FcεRIaγ / NFAT-luciferase) EC50(nM), target-expressing BxPC3 cells [3] [nM] | ADCC reporter (Jurkat FcγRIIIa-FcεRIaγ / NFAT-luciferase) EC50(nM), target-expressing CHOK1 cells [3] [nM] | ADCC reporter (Jurkat FcγRIIIa-FcεRIaγ / NFAT-luciferase) EC50(nM), target-expressing NCI-N87 cells [3] [nM] |
| --- | --- | --- | --- | --- | --- | --- | --- |
| 8k13-hz35 (antibody, IgG1, V domains shown, Humanised IgG1 / kappa; also called 本发明的裸抗-2; hz8k13-hz35; not shown: human kappa light chain constant region) VH: EVQLVQSGAEVKKPGSSVKVSCKASGYAFSNYWMNWVRQAPGQGLEWMGQIYPGSGDTKYSGKFQSRVTITADKSTSTAYMELSSLRSEDTAVYYCARFYYGNVMDYWGQGTLVTVSS VL: DIVLTQSPDSLAVSLGERATINCKSSQTLLSGGNQKNYLTWYQQKPGQPPKLLIYWASTRESGVPDRFSGSGSGTDFTLTISSLQAEDVAVYYCQQGYSYPLTFGQGTKLEIK | binds |  |  |  |  |  |  |
| 16k15-hz35 (antibody, IgG1, V domains shown, Humanised IgG1 / kappa; also called 本发明的裸抗-1; not shown: human kappa light chain constant region) VH: EVQLVESGGGLVQPGGSLRLSCAGSGITLSTYAMSWVRQAPGKGLEWVSSIISGGITYYLDSVKGRFTISRDNAKNTLYLQMNSLRAEDTAVYYCARKYHGNALDYWGQGTLVTVSS VL: DIVMTQSPDSLAVSLGERATINCKSSQSLLSSGNQRNYLTWYQQKPGQPPKKLIYWASTRESGVPDRFSGSGSGTDFTLTISSLQAEDVAVYYCQQNYFYPLTFGQGTKLEIK | binds |  |  |  |  |  |  |
| 8k13-hz24 (antibody, V domains shown, not shown: large carriers) VH: QVQLVQSGAEVKKPGSSVKVSCKASGYAFSNYWMNWVRQAPGQGLEWMGQIYPGSGDTKYSGKFQSRVTITADKSTNTAYMELSSLRSEDTAVYYCARFYYGNVMDYWGQGTLVTVSS VL: DIVLTQSPDSLAVSLGERATINCKSSQTLLSGGNQKNYLTWYQQKPGQPPKLLIYWASTRESGVPDRFSGSGSGTDFTLTISSLQAEDLAVYYCQQGYSYPLTFGQGTKLEIK |  | 28.5 | 21.3 | 57.7 | 0.304 | 0.589 | 0.15 |

Now from value to binder:

| binding result [1] | CDC EC50(nM), BxPC3 cells stably expressing human CLDN18.2 [2] [nM] | CDC EC50(nM), CHOK1 cells stably expressing human CLDN18.2 [2] [nM] | CDC EC50(nM), NCI-N87 cells stably expressing human CLDN18.2 [2] [nM] | ADCC reporter (Jurkat FcγRIIIa-FcεRIaγ / NFAT-luciferase) EC50(nM), target-expressing BxPC3 cells [3] [nM] | ADCC reporter (Jurkat FcγRIIIa-FcεRIaγ / NFAT-luciferase) EC50(nM), target-expressing CHOK1 cells [3] [nM] | ADCC reporter (Jurkat FcγRIIIa-FcεRIaγ / NFAT-luciferase) EC50(nM), target-expressing NCI-N87 cells [3] [nM] | Binder |
| --- | --- | --- | --- | --- | --- | --- | --- |
|  | 12.2 | 5.2 | 17.4 | 0.176 | 0.712 | 0.0677 | 16k15-hz22 (antibody, V domains shown, not shown: large carriers) VH: EVQLVESGGGLVQPGGSLRLSCAGSGITLSTYAMSWVRQAPGKGLEWVSSIISGGITYYLDSVKGRFTISRDNAKNTLYLQMSSLRAEDTAVYYCARKYHGNALDYWGQGTLVTVSS VL: DIVMTQSPDSLAVSLGERATINCKSSQSLLSSGNQRNYLTWYQQKPGQPPKKLIYWASTRESGVPDRFSGSGSGTDFTLTISSLQAEDLAVYYCQNNYFYPLTFGQGTKLEIK |
|  | 52.2 | 30.4 | 474 | 0.106 | 0.593 | 0.0909 | IMAB362 (antibody, human IgG1, kappa, V domains shown) VH: QVQLQQPGAELVRPGASVKLSCKASGYTFTSYWINWVKQRPGQGLEWIGNIYPSDSYTNYNQKFKDKATLTVDKSSSTAYMQLSSPTSEDSAVYYCTRSWRGNSFDYWGQGTTLTVSS VL: DIVMTQSPSSLTVTAGEKVTMSCKSSQSLLNSGNQKNYLTWYQQKPGQPPKLLIYWASTRESGVPDRFTGSGSGTDFTLTISSVQAEDLAVYYCQNDYSYPFTFGSGTKLEIKR |
